Results reported in US20260207732A1.

Columns and labels:
[1] = target: control (H1 Bri18 wild type HA ectodomain-foldon) (Influenza A virus A/Brisbane/02/2018 (H1N1)); experiment: BLI (Octet), HA-foldon-His on Ni-NTA tips, IgG in solution
[2] = target: control (H1 Bri18 wild type HA ectodomain-foldon) (Influenza A virus A/Brisbane/02/2018 (H1N1)); experiment: BLI (Octet) after 7D37C and trypsin; HA on Ni-NTA tips

Substance | Octet response (nm) [1] | Octet response (nm) [2]
CR9114 monoclonal antibody (IgG) | 0.826 nm | 0.693 nm
FI6v3 monoclonal antibody (IgG) | 0.856 nm | 0.697 nm
